In the supplement of paper PMC10567573:

B1: CSTF3 (parent)
chain: YVPEKVKKAEKKLEENPYDLDAWS

Variants of: B1
Test: protein stability index of a GFP-peptide fusion (GPS, HEK-293T) (PSI 1-6); higher = more stable
Settings: c terminus: a fixed tail appended
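Note: lentivirally expressed fusions sorted by FACS into six bins by GFP to DsRed ratio, PSI derived from sequencing read proportions per bin multiplied by bin number.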

Protein stability index of substitutions, site by site:
K12: M 2.6 | I 2.7 | T 3.28 | S 3.79 | F 3.31 | R 2.88 | D 2.9 | G 2.68 | P 3.32 | Q 3.16 | W 2.9 | E 2.41 | N 2.92 | Y 2.72 | H 3.19 | V 2.59 | A 2.82 | L 2.95 | C 2.49
K11: Y 2.72 | S 2.66 | W 2.4 | P 2.65 | R 2.94 | Q 3.48 | V 3.77
E14: L 2.35 | Y 2.2 | R 2.36 | G 2.17 | I 3.95 | K 2.88 | A 2.61 | Q 2.02 | S 3.27 | C 3.58 | F 1.88 | W 3.09 | P 3.04 | H 2.92 | V 2.25 | N 2.18 | T 2.26
P17: W 2.5 | E 2.63 | Q 1.22 | V 1.43 | N 2.52 | M 2.48 | C 2.34 | R 2.29 | D 3.55 | F 1.95 | T 3.18 | H 2.04 | G 2.39 | Y 2.43 | L 3.01 | A 2.45 | I 2.32 | S 2.37 | K 1.32
D19: R 2.04 | W 2.98 | T 2.34 | A 2.2 | Q 3.34 | L 1.62 | E 2.57 | G 3.95 | I 2.28 | M 2.14 | P 2.59 | S 2.91 | Y 2.69 | H 1.58 | N 2.54 | K 3.97
E15: H 2.05 | R 3.05 | V 3.54 | L 3.23 | G 2.88 | Q 3.42 | Y 3.42 | S 3.34 | A 3.94 | D 2.86 | T 1.58 | W 2.8 | F 2.55 | M 2.99 | K 3.45 | P 2.47 | C 2.68
L20: I 1.97 | S 2.24 | A 2.54 | Y 2.13 | G 2.15 | W 1.55 | P 2.23 | R 2.9 | Q 2.79 | D 1.73 | F 1.44 | H 2.84 | K 1.96 | E 1.76 | T 3.25 | M 1.91 | C 2.71 | V 3.2
D21: A 2.98
Y18: F 2.55 | N 2.38 | W 1.61 | E 1.93 | R 2.77 | H 2.12 | Q 2.17 | V 1.45 | T 2.27 | A 2.62 | I 2.47 | L 2.15 | S 2.46 | P 2.71 | G 2.35 | K 3.33 | D 5.04 | M 2.58 | C 2.88
N16: S 2.65 | Q 2.24 | P 1.67 | D 2.73 | F 3.03 | Y 2.56 | C 1.67 | M 1.81 | R 2.64 | E 3.13 | G 2.54 | L 3.68 | T 2.27 | K 3.09 | I 1.05 | W 2.08 | A 2.04
L13: Q 2.36 | Y 1.87 | I 3.1 | K 2.5 | G 2.23 | P 2.46 | W 2.45 | T 1.92 | A 2.25 | E 2.86 | H 2.49 | F 2.02 | M 3.19 | V 2.21 | D 2.22 | R 2.67 | S 3.52
